According to patent US20190002553A1:

What was measured:
[1] = target: human IL-11 (Interleukin 11) (human) (UniProt P20809); experiment: cell-based or functional assay
[2] = target: murine IL-11 (mouse) (UniProt P47873); experiment: cell-based or functional assay
Chain of UniProt P47873 (P47873 22-199 limits assumed): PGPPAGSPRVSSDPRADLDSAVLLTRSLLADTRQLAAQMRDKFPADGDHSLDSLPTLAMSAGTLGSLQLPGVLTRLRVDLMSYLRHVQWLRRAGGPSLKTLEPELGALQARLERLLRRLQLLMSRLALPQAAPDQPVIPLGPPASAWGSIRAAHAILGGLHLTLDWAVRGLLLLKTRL

Chain of UniProt P20809 (P20809 22-199 limits assumed): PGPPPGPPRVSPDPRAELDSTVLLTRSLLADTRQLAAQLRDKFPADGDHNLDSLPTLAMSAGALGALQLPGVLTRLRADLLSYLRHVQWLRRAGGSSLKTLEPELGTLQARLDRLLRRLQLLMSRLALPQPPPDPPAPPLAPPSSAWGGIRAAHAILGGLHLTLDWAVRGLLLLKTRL

percentage of activated (αSMA-positive) fibroblasts, TGFβ1-stimulated human atrial fibroblasts [1]: 28.3% | percentage of activated fibroblasts normalised to non-stimulated cultures (=1) (fold of non-stimulated cultures) [1]: 0.99 | percentage of activated fibroblasts, TGFβ1-stimulated human atrial fibroblasts, relative to unstimulated cultures [1]: 0.89 fold | percentage of activated fibroblasts normalised to non-stimulated cultures (=1) (fold of non-stimulated cultures) [2]: 1.24 | percentage of activated fibroblasts, TGFβ1-stimulated mouse atrial fibroblasts, relative to unstimulated cultures [2]: 1.44 fold | percentage of activated fibroblasts, TGFβ1-stimulated mouse dermal fibroblasts [2]: 39.4%
Substance: neutralising anti-human IL-11 monoclonal antibody (Monoclonal Mouse IgG2A; Clone #22626; Catalog No. MAB218; R&D Systems)
